# Assay results as given in paper doi:10.1101/172908 (bioRxiv, 2017).
# B1: rat Kir6.2 (natural protein)
# chain: MLSRKGIIPEEYVLTRLAEDPTEPRYRTRERRARFVSKKGNCNVAHKNIREQGRFLQDVFTTLVDLKWPHTLLIFTMSFLCSWLLFAMVWWLIAFAHGDLAPGEGTNVPCVTSIHSFSSAFLFSIEVQVTIGFGGRMVTEECPLAILILIVQNIVGLMINAIMLGCIFMKTAQAHRRAETLIFSKHAVITLRHGRLCFMLRVGDLRKSMIISATIHMQVVRKTTSPEGEVVPLHQVDIPMENGVGGNSIFLVAPLIIYHVIDSNSPLYDLAPSDLHHHQDLEIIVILEGVVETTGITTQARTSYLADEILWGQRFVPIVAEEDGRYSVDYSKFGNTVKVPTPLCTARQLDEDRSLLDALTLASSRGPLRKRSVAVAKAKPKFSISPDSLS
# Target: the molecule itself
# Assay: cryo-EM structure
protein,measurement,value
B1,stoichiometry N,4
